Laboratory results: article PMC2659244 (The Journal of Biological Chemistry, 2009)
Each block holds one molecule with its values, some of them ahead of it.

B1: chicken vinculin domain 1 (residues 1-258) (domain or fragment, UniProt P12003 1-258, looked up)
chain: MPVFHTRTIESILEPVAQQISHLVIMHEEGEVDGKAIPDLTAPVSAVQAAVSNLVRVGKETVQTTEDQILKRDMPPAFIKVENACTKLVRAAQMLQADPYSVPARDYLIDGSRGILSGTSDLLLTFDEAEVRKIIRVCKGILEYLTVAEVVETMEDLVTYTKNLGPGMTKMAKMIDERQQELTHQEHRVMLVNSMNTVKELLPVLISAMKIFVTTKNTKSQGIEEALKNRNFTVEKMSAEINEIIRVLQLTSWDEDAW

Experiments:
[1] = target: T1, talin IBS2 polypeptide (residues 1974-2293), His tag removed (mouse, UniProt P26039 1974-2293); assay: SEC
[2] = target: T2, His-Avi-tagged β3-integrin tail, biotinylated (UniProt P05106 742-788, biotin (biotinylated tails, held on NeutrAvidin)); assay: ELISA
T2 chain (looked up): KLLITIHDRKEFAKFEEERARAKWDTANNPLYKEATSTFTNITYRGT

[3] = target: T1, talin IBS2 polypeptide (residues …); assay: NMR titration
[4] = target: B1; assay: SEC
[5] = target: T3, His-Avi-tagged β1A-integrin tail, biotinylated (UniProt P05556-1 752-798, biotin (biotinylated tails, held on NeutrAvidin)); assay: ELISA
T3 chain (looked up): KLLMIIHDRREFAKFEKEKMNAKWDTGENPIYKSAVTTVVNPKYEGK

β3-integrin tail = assay: ELISA-type binding of talin polypeptides to immobilized β3-integrin tails

Molecule: B1
binding result [1]: binds

Molecule: KLLITIHDRKEFAKFEEERARAKWDTANNPLYKEATSTFTNITYRGT (peptide, UniProt P05106 742-788, looked up) [full-length β3-integrin tail peptide (residues 716-762)]
binding result [3]: binds

B7: IBS2: recombinant murine talin residues 1974-2293, two five-helix bundles, integrin-binding site 2 (protein)
chain: GTQACITAASAVSGIIADLDTTIMFATAGTLNREGAETFADHREGILKTAKVLVEDTKVLVQNAAGSQEKLAQAAQSSVATITRLADVVKLGAASLGAEDPETQVVLINAVKDVAKALGDLISATKAAAGKVGDDPAVWQLKNSAKVMVTNVTSLLKTVKAVEDEATKGTRALEATTEHIRQELAVFCSPEPPAKTSTPEDFIRMTKGITMATAKAVAAGNSCRQEDVIATANLSRRAIADMLRACKEAAFHPEVAPDVRLRALHYGRECANGYLELLDHVLLTLQKPNPDLKQQLTGHSKRVAGSVTELIQAAEAMKGT
modifications: left off: His tag, N-terminal, kept | V5 epitope, N-terminal, kept
affinity for β-integrin tails, fold weaker than binding by the talin FERM domain (β3-integrin tail): ~2 fold

Next, values leading:

EC50 [2]: > 2500 nM
B2: talin IBS2-B (residues 2137-2293), His/V5-tagged (domain or fragment, mouse, UniProt P26039 2137-2293, looked up)
chain: DEATKGTRALEATTEHIRQELAVFCSPEPPAKTSTPEDFIRMTKGITMATAKAVAAGNSCRQEDVIATANLSRRAIADMLRACKEAAFHPEVAPDVRLRALHYGRECANGYLELLDHVLLTLQKPNPDLKQQLTGHSKRVAGSVTELIQAAEAMKGT

EC50 [2]: > 2500 nM
B3: talin rod polypeptide 1974-2541 (domain or fragment, UniProt P26039 1974-2541, looked up)
chain: GTQACITAASAVSGIIADLDTTIMFATAGTLNREGAETFADHREGILKTAKVLVEDTKVLVQNAAGSQEKLAQAAQSSVATITRLADVVKLGAASLGAEDPETQVVLINAVKDVAKALGDLISATKAAAGKVGDDPAVWQLKNSAKVMVTNVTSLLKTVKAVEDEATKGTRALEATTEHIRQELAVFCSPEPPAKTSTPEDFIRMTKGITMATAKAVAAGNSCRQEDVIATANLSRRAIADMLRACKEAAFHPEVAPDVRLRALHYGRECANGYLELLDHVLLTLQKPNPDLKQQLTGHSKRVAGSVTELIQAAEAMKGTEWVDPEDPTVIAENELLGAAAAIEAAAKKLEQLKPRAKPKEADESLNFEEQILEAAKSIAAATSALVKAASAAQRELVAQGKVGAIPANALDDGQWSQGLISAARMVAAATNNLCEAANAAVQGHASQEKLISSAKQVAASTAQLLVACKVKADQDSEAMKRLQAAGNAVKRASDNLVKAAQKAAAFEDQENETVVVKEKMVGGIAQIIAAQEEMLRKERELEEARKKLAQIRQQQYKFLPSELRDEH

EC50 [2]: > 2500 nM
B4: talin IBS2-A (residues 1974-2140), His/V5-tagged (domain or fragment, mouse, UniProt P26039 1974-2140, looked up)
chain: GTQACITAASAVSGIIADLDTTIMFATAGTLNREGAETFADHREGILKTAKVLVEDTKVLVQNAAGSQEKLAQAAQSSVATITRLADVVKLGAASLGAEDPETQVVLINAVKDVAKALGDLISATKAAAGKVGDDPAVWQLKNSAKVMVTNVTSLLKTVKAVEDEAT

binding result [4]: binds
B5: talin IBS2-A (residues 1974-2140), His tag removed (domain or fragment, mouse, UniProt P26039 1974-2140, looked up)
chain: GTQACITAASAVSGIIADLDTTIMFATAGTLNREGAETFADHREGILKTAKVLVEDTKVLVQNAAGSQEKLAQAAQSSVATITRLADVVKLGAASLGAEDPETQVVLINAVKDVAKALGDLISATKAAAGKVGDDPAVWQLKNSAKVMVTNVTSLLKTVKAVEDEAT

EC50 [5]: 900 ± 100 nM | EC50 [2]: 900 ± 200 nM
B6: talin IBS2 polypeptide (residues 1974-2293), His/V5-tagged (domain or fragment, mouse, UniProt P26039 1974-2293, looked up)
chain: GTQACITAASAVSGIIADLDTTIMFATAGTLNREGAETFADHREGILKTAKVLVEDTKVLVQNAAGSQEKLAQAAQSSVATITRLADVVKLGAASLGAEDPETQVVLINAVKDVAKALGDLISATKAAAGKVGDDPAVWQLKNSAKVMVTNVTSLLKTVKAVEDEATKGTRALEATTEHIRQELAVFCSPEPPAKTSTPEDFIRMTKGITMATAKAVAAGNSCRQEDVIATANLSRRAIADMLRACKEAAFHPEVAPDVRLRALHYGRECANGYLELLDHVLLTLQKPNPDLKQQLTGHSKRVAGSVTELIQAAEAMKGT
